Reference: article PMC7979937, “Crystal structures of human MGST2 reveal synchronized conformational changes regulating catalysis” (Nature Communications, 2021)

Target: the molecule itself
Experiment: crystal structure; crystals grown in lipidic cubic phase (8.8 MAG for apo, 9.9 MAG for GSH and GSO3- complexes), protein at 30 mg/ml, 20 °C; apo, with 7 mM GSH, with 7 mM GSO3-; homo-trimer

B1: Microsomal glutathione S-transferase 2 (human) (enzyme)
chain: not shown
notes: Microsomal glutathione S-transferase 2 (MGST2), human; cDNA from IMAGE clone 5277851 cloned in pPICZA; Integral membrane protein, homo-trimer in the crystals; The terminal ends are disordered in the crystal structures; also called MGST2; apo-MGST2; source: Pichia pastoris KM71H, purified (Ni-Sepharose, S-hexylglutathione agarose, SEC) in DDM
  stoichiometry N: 3
